The source of these data is patent publication US10975360B2, “Process for the modification of alkanes, fatty acids and fatty alcohols” (priority 2016, dated 2021).

The nature of data set [1]: Biotransformation of tetradecanoic acid using CFE of E. coli, Tris-HCl buffer. The format is biochemical. Conditions: 5 mmol/L substrate, CFE of E. coli, Tris-HCl, 24 h. How it is done: (§1) Expression of genes in E. coli was performed by using ZYP-5052 auto-induction medium (Table 1) with in the case of the CYP 1 mM 5-aminolevulinic acid and 0.05 mM FeCl3 added. The CYP505E3 culture was cultivated using baffled flasks and incubated at 20° C. and 180 rpm for 24 h, while the GDH, and HLADH expressing cultures were all cultivated at 25° C. and 200 rpm for 24 h. Cultures were harvested through centrifugation (6 000×g, 10 min) and 1 g (wet weight) resuspended in 2 ml, 5 ml or 10 ml Tris-HCl, Phosphate or MOPS buffer, as indicated, (pH 8, 200 mM) containing 100 mM of glucose and glycerol. CFEs were obtained by a single passage of the suspended cells through a One Shot Cell Disrupter (Constant Systems) at 207 MPa. The soluble fraction was separated from unbroken cells by centrifugation (20 000×g, 20 min).
The biotransformation reaction mixture (BRM) consisted of CYP and GDH CFE suspensions prepared from cells in Tris-HCl buffers (1 g wet weight in 2 ml buffer) mixed in a 1:1 ratio with 0.1 mM NADPH added. Dodecanoic acid, tetradecanoic acid, hexadecanoic acid, 1-tetradecanol and 1-hexadecanol (20 μl of a 255 mM stock solution in DMSO) were added to 40 ml amber glass vials containing 1 ml BRM to give final substrate concentrations of 5 mmol·LBRM^−1. These vials were placed on an orbital shaker at 20° C., 200 rpm, oscillation amplitude 26 mm. Vials were removed after 24 h for extraction. Biotransformations were stopped by adding 170 ul of 0.5M HCl, extracted with 2×500 μl EtOAc and subjected to GC-MS analysis. A sample of δ-dodecalactone in ethyl acetate (0.1 mM) was also methylated with TMSH and subjected to GC-MS analysis.

The format of data set [2] is cell-based, P. pastoris.
The nature of data set [3]: Time course of biotransformation of 50 mM C12 fatty acid using CFE of E. coli in MOPS buffer. The format is biochemical. Conditions: 50 mM dodecanoic acid, 0.2 μM CYP. As for the experimental part:
as §1, with “min). […]” for “min).”
After extraction aliquots (50 μl) of ethyl acetate extracts containing both decanoic acid and tetradecanol as internal standards were methylated for GC-MS analysis while the rest of the extracts were washed with a Na2CO3 (5% w/v) solution to remove the fatty acids. The washed ethyl acetate extracts were also analysed by GC-MS and the δ-dodecalactone and γ-dodecalactone concentrations determined from a standard curve.

For data set [4] the following is noted: whole cell biotransformations, E. coli; cited from earlier work.
Data set [5] is described as follows: Biotransformation of 1-tetradecanol using CFE of E. coli, Tris-HCl buffer. In kind it is biochemical. As to conditions: 5 mmol/L substrate, CFE of E. coli, Tris-HCl, 24 h. As for the experimental part:
as §1
The biotransformation reaction mixture (BRM) consisted of CYP and GDH CFE suspensions prepared from cells in Tris-HCl buffers (1 g wet weight in 2 ml buffer) mixed in a 1:1 ratio with 0.1 mM NADPH added. Dodecanoic acid, tetradecanoic acid, hexadecanoic acid, 1-tetradecanol and 1-hexadecanol (20 μl of a 255 mM stock solution in DMSO) were added to 40 ml amber glass vials containing 1 ml BRM to give final substrate concentrations of 5 mmol·LBRM^−1. These vials were placed on an orbital shaker at 20° C., 200 rpm, oscillation amplitude 26 mm. […]

Data set [6] is described as follows: Biotransformation of C12 fatty acid using CFE of E. coli expressing CYP505E3 in different buffers. In kind it is biochemical. As for the experimental part:
as §1
The biotransformation reaction mixture (BRM) consisted of CYP and GDH CFE suspensions prepared from cells in Tris-HCl, phosphate and MOPS buffers (1 g wet weight in 5 ml buffer) mixed in a 1:1 ratio with 0.1 mM NADPH added. The final CYP concentrations were 1.1, 1.3 and 1.5 μM in respectively the Tris-HCl, phosphate and MOPS buffers. Dodecanoic acid (20 μl of 255 or 510 mM fatty acid stock solution in DMSO) was added to 40 ml amber glass vials containing 1 ml BRM to give final substrate concentrations of 5 and 10 mmol·LBRM^−1. […]

B1: CYP505E3: self-sufficient cytochrome P450 monooxygenase from Aspergillus terreus, SEQ ID No 1 (protein, listed as Aspergillus terreus)
chain: MIKETEQIPGPRPLPVVGNLFDMDLEHGLECLIRLADDFGPLFQITINGEKQIFATSQALVDELCDESRFHKAVMGGLEKLRMLASDGLFTAYHGERGWGIAHRILVPAFGPLRIRNMFEEMNDVAQQLCLKWARQGSSTSINITDDFTRLTLDTIALCTMNFRLNSFYNNETMHPFVKSMLYVLRESDIQSMLPGIANCIRVKARSRMSKHIQLMRNMARGIIQERRDQAEPVDDLLNTLLNGRDPVTGEGMSDDLIINNVITFLIAGHETTSGLLSFTFYYLLQNPHILERAQNEVDEVTGGERITVQHLGRLTYIDAILKESLRLMPTAPAFTVTPKKPEVLGGAWAIDAGQAVNVLLPVCLRDRSVFGPDADEFRPERMLEENFSKLPPNSWKPFGNGERSCIGRAFAWQEAQLVVAMVLQTFDLVPDDPSYKLRIKETLTIKPDGFRVRATLRRGQSATGLSQGSMSASGATSSVASPGPPAATGAQSNPAGGQRISFFYGSNSGTCKALAHRLASSLMGRGFTEQKLAALDTVVGNLPTDQPVIIVTTSYDGRPTDDAEEFVRWLESKRPVLQGVSYAVFGCGHHDWAKTFYRIPILIDDLMHKAGATRLTALGTANAAVSDLFSDLELWEETNLLPALREAFPPSNSSDVESSEPHQLQICVSKPRRVDMHRGLVEAKVTAVRTLTSPDSPEKRHVEFHVQGDTTWRPGDHVNILPVNPLSTVSRVLAYFQLAPDHSITVNSFNTQGLPSATPVSATELFSSFVELSQPATRKNLKALAMAAESKTDEQELIRLHDSYDALVRDKRVSVLDILERFPSISLPIGIFISMLPPLRLRTYSLSMAPSFKPSHGSLTFSVINEPAWSGNGQYLGVGSNYLASLTPGSLLYLSPRPAKDAFHLPADQFNTPIIMICAGSGLAPFMGFIQERMTWLKQGRPLAKGLLFFGCRGPHLDDLYYEELSEFEDAGVVEVHRAYSRAPDDVRAKGCRHVQHRLVTEAEAVRDHWGRNAIVYVCGSSNMARGVQTVLEEILGTLPPERYVAEIF
As to B1, the “products identified from tetradecanoic acid (GC-MS, methylated samples)” value in data set [1] is listed as 7-hydroxy tetradecanoic acid. The “products produced from tetradecanoic acid (GC-MS)” value in data set [2] is reported as “only 7-hydroxy tetradecanoic acid”. The “lactone concentrations in the washed ethyl acetate samples” value in data set [3] (Na2CO3 washed, not methylated) amounted to 0.6 mmol·LBRM^−1. In addition, in data set [3] (unwashed, methylated), the “lactone concentrations in the unwashed samples” value is recorded as 1.6 mmol·LBRM^−1. Moreover, the “activity towards alkanes and alkylbenzens” value in data set [4] is given as “no detectable activity”. Further, the “products detected from tetradecanol (GC-MS)” value in data set [5] was 1,7-tetradecane diol and 1,8-tetradecane diol. The conversion of substrate result in data set [6] (5 mM dodecanoic acid, within 24 h, all buffers) is “almost completely converted”. Also, in data set [6] (dodecanoic acid, CFE, Tris-HCl, phosphate or MOPS buffer pH 8), the “δ-dodecalactone and 5-OH 12FAME as share of the total products” value was 30-35%.
